Patent US20090326205A1 (LIV TECH, published 2009)

Assays:
[1] = biological target: T1, purified recombinant hFA-1 protein (hDlk-1 extracellular region, FA-1) (human, UniProt P80370 24-303); assay: ELISA, purified recombinant hFA-1 (0.5 to 1 µg/mL) immobilized, antibody dilution series
T1 construct: also called human FA1; purified FA-1; not shown: C-terminal Myc tag and His tag from vector pcDNA4/Myc-His
T1 sequence: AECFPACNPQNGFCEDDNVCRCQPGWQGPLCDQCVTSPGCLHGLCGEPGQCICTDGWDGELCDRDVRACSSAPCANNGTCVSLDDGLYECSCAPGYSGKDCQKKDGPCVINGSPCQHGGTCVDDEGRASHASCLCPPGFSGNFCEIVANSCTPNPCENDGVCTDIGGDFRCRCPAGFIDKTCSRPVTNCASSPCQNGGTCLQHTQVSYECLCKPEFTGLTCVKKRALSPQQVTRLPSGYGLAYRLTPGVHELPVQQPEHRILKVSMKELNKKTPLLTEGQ
Protocol: ELISA was carried out in the same manner as described in Example 1, using an ELISA plate on which the purified recombinant hFA-1 protein (0.5 to 1 μg/mL) had been immobilized. Specifically, the ELISA plate was washed with a washing buffer 3 times and it was then blocked using a blocking solution at room temperature for 1 hour (or at 4° C. overnight). Thereafter, the plate was washed with a washing buffer 2 times and a mouse DI-2-14 antibody and a ChDI-2-14 antibody, wherein dilution series were produced using an ELISA buffer, were added to the plate, so that they were allowed to react (at 4° C. overnight). Thereafter, the plate was washed with a washing buffer 3 times and it was then allowed to react with HRP-labeled anti-mouse IgG (final concentration: 1 μg/mL) or HRP-labeled anti-human IgG (final concentration: 1 μg/mL) (both products manufactured by GE Healthcare), which had been diluted with a blocking solution.

[2] = biological target: T2, hDlk-1 EGF-like motif deletion construct EGF (5-6) expressed on COS-7 cells (human, UniProt P80370 170-383); assay: FACS and immunostaining of transfected COS-7 cells
T2 construct: also called hDlk (EGF 5-6)-pME18-CHFX
T2 sequence: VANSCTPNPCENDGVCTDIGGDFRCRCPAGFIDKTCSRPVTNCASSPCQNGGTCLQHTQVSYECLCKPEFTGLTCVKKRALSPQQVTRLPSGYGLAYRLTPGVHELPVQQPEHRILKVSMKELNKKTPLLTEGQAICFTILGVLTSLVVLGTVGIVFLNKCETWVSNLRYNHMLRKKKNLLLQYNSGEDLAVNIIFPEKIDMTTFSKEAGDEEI
Description: (§1) Each of expression vectors hDlk (EGF 1-2)-pME-CHFX, hDlk (EGF 1-3)-pME-CHFX, hDlk (EGF 3-4)-pME-CHFX, hDlk (EGF 4-6)-pME18-CHFX and hDlk (EGF 5-6)-pME18-CHFX (FIG. 7) was introduced into COS-7 cells and they were then subjected to FACS analysis and the immunostaining of Cytospin specimens, so as to examine sites in a region containing 6 EGF-like motifs existing in the FA-1 region (extracellular region) of hDlk-1, which were recognized by each anti-hDlk-1 monoclonal antibody.
(§2) It has been reported that, among mouse IgG isotypes, IgG2a and IgG2b have strong antibody-dependent cytotoxic activity (ADCC) and that the ADCC of IgG1 is low (please refer to Kipps, T. J. et al., 1985). The isotype of the clone DI-2-14 is mouse IgG1.

[3] = biological target: T3, hDlk-1 EGF-like motif deletion construct EGF (4-6) expressed on COS-7 cells (human, UniProt P80370 131-244); assay: FACS and immunostaining of transfected COS-7 cells
T3 construct: also called hDlk (EGF 4-6)-pME18-CHFX; hdlk-EGF (4-6)/pME18S-CFHX
T3 sequence: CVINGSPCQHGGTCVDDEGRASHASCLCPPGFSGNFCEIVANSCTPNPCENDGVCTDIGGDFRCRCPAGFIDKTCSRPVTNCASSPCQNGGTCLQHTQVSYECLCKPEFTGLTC
Description: as §1, §2

[4] = biological target: T1, purified recombinant hFA-1 protein …; assay: ELISA method of Djavadi-Ohaniance: antibody (0.5 nM) equilibrated with hFA-1 (3.125-50 nM), then added to an hFA-1-coated plate
Protocol: Specifically, the purified recombinant hFA-1 protein (1 μg/mL) was added to a 96-well culture plate (Corning) to fix as an antigen (at room temperature for 1 hour). Subsequently, the plate was washed with PBS 3 times and 2% skim milk (PBS solution) was added thereto for blocking (at room temperature for 1 hour). After the plate had been washed with PBS 2 times, an antigen-antibody complex formed by previously mixing an antigen solution (a purified hFA-1 protein; 50, 25, 12.5, 6.25 and 3.125 nM) with each clone of the anti-hDlk-1 monoclonal antibody (0.5 nM) and then equilibrating the mixture was added to the aforementioned ELISA plate for a reaction (at room temperature for 1 hour). After the plate had been washed with PBS 3 times, it was allowed to react with HRP-labeled anti-mouse IgG (final concentration: 1 μg/mL) or HRP-labeled anti-rat IgG (final concentration: 1 μg/mL) (both of which were available from GE Healthcare Biosciences), which had been diluted with a blocking solution, at room temperature for 1 hour.
Subsequently, the affinity (dissociation constant) of these clones for an antigen was calculated by the aforementioned ELISA method. […] The affinity of the clone 2-13 for the purified recombinant hFA-1 was not high and thus the Kd value thereof could not be calculated by the aforementioned method.

B1: anti-hDlk-1 monoclonal antibody clone DI-2-14 (mouse IgG1) (antibody, V domains shown)
VH: EVQLQQSGAELVKPGASVKLSCTASGFNIRDTYIHWVKQRPEQGLEWIGRIDPPNGNLKYDPKFQGKATITADTSSNTAYLQFSSLTSEDTAVYYCARSDGYSFAYWGQGTLVTVSA
VL: DIVMTQAAPSVPVTPGESVSISCRSSKSLLHSNGNTYLYWFLQRPGQSPQLLIYRMSNLASGVPDRFSGSGSGTAFTLRISRVEAEDVGVYYCMQHVEYPFTFGSGTKLEIK
notes: also called mouse DI-2-14; mouse DI-2-14 antibody
- EC50 [1]: 0.01 µg/mL
- binding result [2]: no binding
- binding result [3]: no binding
- Kd [4]: 9.26 nM

B2: chimeric DI-2-14 antibody (ChDI-2-14), mouse-human chimeric DI-2-14 IgG1/K (antibody, V domains shown)
VH: B1 VH
VL: B1 VL
notes: domain: human γ1 heavy chain constant region; not shown: human kappa chain constant region (CL) of vector pChDI-2-14
- EC50 [1]: 0.01 µg/mL
